# Reference: article doi:10.1101/343640
# Biological target: IMCC25003 KatG (bifunctional catalase-peroxidase of strain IMCC25003) ('Ca. Planktophila rubra' IMCC25003 (acI-A1 tribe, freshwater Actinobacteria))
# Assay: SEC
substance,measurement,value
IMCC25003 KatG (bifunctional catalase-peroxidase of strain IMCC25003) (enzyme),stoichiometry N,2
